Read-outs that look alike come from different tables or passages of the source. Each block holds one binder with its values, some of them ahead of it.
Legend:
[1] = target: T1, human IGF-1R, native, on cells (MCF-7, hIGF-1R transfected cells, tumor sections, primary normal cells) (human, UniProt P08069 31-1367); experiment: cell-based or functional assay
[2] = target: T2, monkey IGF-1R on COS-7 cells (monkey (African green monkey)); experiment: cell-based or functional assay
[3] = target: T1, human IGF-1R, native, on cells (MCF-7, …); experiment: cell-based or functional assay; remark: listed apart in the source
[4] = target: T1, human IGF-1R, native, on cells (MCF-7, …); experiment: cell-based or functional assay; remark: listed apart in the source
[5] = target: T3, soluble recombinant human IGF-1R hetero-tetramer with C-terminal 10-His tag (R&D Systems 305-GR-50) (human, UniProt P08069 31-736; P08069 741-932); experiment: SPR Biacore X100, His-captured soluble h-IGF-1R (about 600 RU), mean of 4 experiments
T3 construct: domain: alpha chain;domain: extracellular domain of the beta chain; Captured on an anti-His antibody chip; also called recombinant soluble human-IGF-1R; h-IGF-1R
Method: (§1) The dissociation constants (KD) of the binding of the antibodies on a recombinant soluble human-IGF-1R were defined by the ratio between the dissociation rate (koff) and the association rate (kₒₙ). The kinetic experiments were run on a Biacore X100 device using a CM5 sensor chip activated by a mouse anti-Tag His monoclobnal antibody. Around 12000 RU of antibodies are chemically grafted on the carboxymethyldextan matrix using the amine kit chemistry.
(§2) The experiments were carried out at 25° C. with a flow rate of 30 μl/min using the HBS-EP+ buffer (GE Healthcare) as the running and sample dilution buffer.
(§3) The single cycle kinetic scheme was used to define the kinetic parameters of the binding of the anti-IGF-1R antibodies on a soluble recombinant human IGF-1R captured by its two C-terminal 10 Histidine-tag. [0637] 1—A solution of a soluble recombinant version of the human IGF-1R hetero-tetramere: 2a chains and the extracellular domains of 2β chains expressed with an additional C-terminal 10-His tag (R&D Systems catalogue number 305-GR-50) was injected during one minute on the second flowcell at a concentration of 10 μg/ml. […] [0638] 2—After the capture phase, either the running buffer was injected 5 times (90 s each injection) or a growing range of 5 concentrations of one of the six antibodies was injected (90 s each injection) on both flowcells. At the end of the fifth injection the running buffer was passed during 5 minutes in order to define the dissociation rate. [0639] 3—The surface was then generated with an injection of a 10 mM Glycine, HCl pH 1.5 buffer during 45 s.

[6] = target: T1, human IGF-1R, native, on cells (MCF-7, …); experiment: cell-based or functional assay; remark: listed apart in the source
[7] = target: T3, soluble recombinant human IGF-1R …; experiment: SPR Biacore X100, Ln(2)/koff
Method: as §1, §2
as §3, with “At the end of the fifth injection the running buffer was passed during 5 minutes in order to define the dissociation rate. [0639] 3—The surface was then generated with an injection of a 10 mM Glycine, HCl pH 1.5 buffer during 45 s.” left out

[8] = target: T4, soluble recombinant cynomolgus IGF-1R hetero-tetramer with C-terminal 10-His tag (produced in house) (cynomolgus monkey); experiment: SPR Biacore X100, His-captured recombinant cynomolgus IGF-1R
T4 construct: domain: alpha chain;domain: extracellular domain of the beta chain; Produced in house; also called Macaca IGF-1R; soluble monkey IGF-1R ECD
Method: (§4) The recognition experiments were run on a Biacore X100 device using a CM5 sensor chip activated by an anti-Tag His antibody (His capture kit GE Healthcare catalogue number 28-9950-56). More than 11000 RU of antibodies are chemically grafted on the carboxymethyldextan matrix using the amine kit chemistry. The experiments were carried out at 25° C. with a flow rate of 30 μl/min using the HBS-EP buffer (GE Healthcare) as the running and sample dilution buffer.
(§5) A solution of a soluble recombinant version of the IGF-1R hetero-tetramere composed of 2a chains and the extracellular domains of 2β chains expressed with an additional C-terminal 10-His tag, based either on the sequence of the human (R&D Systems catalogue number 305-GR-50) or of the one of cynomolgus (produced in house) was injected 1 minute on the second flowcell at a dilution defined to capture around 160 RU of antigen. […] At the end of the fifth injection the running buffer was passed in order to define the dissociation rate.
(§6) The resulting sensorgrams were analysed using the Biaevaluation software with a 1:1 model. […] The quality of the fitting was assessed by a Chi2/Rmax ratio lower than 0.05 RU.

[9] = target: T3, soluble recombinant human IGF-1R …; experiment: SPR Biacore X100, single cycle kinetics, His-captured human IGF-1R (about 160 RU), 1:1 model
Method: as §4, §5, §6

[10] = target: T3, soluble recombinant human IGF-1R …; experiment: SPR Biacore X100, His-captured recombinant human IGF-1R
Method: as §4, §5, §6

[11] = target: T1, human IGF-1R, native, on cells (MCF-7, …); experiment: FACS titration on MCF-7 cells, 4 C, secondary antibody, MFI; EC50 table inside the plot
[12] = target: T5, human insulin receptor on cells (IM9 cells, hIR+ transfected cell line) (human, UniProt P06213 28-1382); experiment: FACS titration on NIH 3T3 IR+ cells (human insulin receptor transfected), 4 C, secondary antibody, MFI
T5 construct: whole, on cells; also called human IR

[13] = target: T1, human IGF-1R, native, on cells (MCF-7, …); experiment: FACS titration on MCF-7 cells
Method: (§7) The binding properties of the humanized variants were evaluated by FACS analyses on the human MCF-7 breast adenocarcinoma cell line and the monkey cell line Cos-7 using increasing antibody concentrations. For that purpose, cells (1×10⁶ cells/ml) were incubated with anti-IGF-1R antibodies for 20 min. at 4° C. in FACS buffer (PBS, 0.1% BSA, 0.01% NaN3). They were then washed 3 times and incubated with the appropriate secondary antibody coupled with Alexa 488 for 20 additional minutes at 4° C. in the dark before being washed 3 times in FACS buffer. The binding of anti-IGF-1R antibodies was immediately performed on viable cells which were identified using propidium iodide (that stains dead cells). The EC₅₀ of binding expressed in molarity (M) was calculated using a nonlinear regression analysis (GraphPad Prims 4.0).

[14] = target: T2, monkey IGF-1R on COS-7 cells; experiment: FACS titration on COS-7 cells, 4 C, secondary antibody, MFI; EC50 table inside the plot
[15] = target: T2, monkey IGF-1R on COS-7 cells; experiment: FACS titration on Cos-7 cells
Method: as §7

[16] = target: T6, recombinant human Insulin Receptor protein (R&D Systems, Cat 1544-IR/CF) (human, UniProt P06213-2 28-944); experiment: direct ELISA, coated rhIR
T6 construct: Bought protein coated on ELISA plates; also called rhIR; rh Insulin R
Method: In all direct ELISAs, proteins of interest were immobilized (1 μg/ml) to the bottom of each well. After saturation, hybridoma supernatants were added to the wells. After a 1-hour incubation period and a washing step, a solution of goat anti-mouse IgG—HRP labelled polyclonal antibody was used for detection, prior to the addition of the TMB substrate. The reaction was stopped with a 1M H₂SO₄ solution before reading the OD with a spectrophotometer at a 450 nm wavelength.

decrease of IGF1-induced phosphorylation of hIGF-1R (MCF-7 cells) [1]: 80% | % internalisation (monkey IGF-1R) [2]: 74% | ΔMFI (monkey IGF-1R internalization) [2]: 84 MFI | MFI 37°C (MCF7 internalisation assay) [3]: 115 MFI
B2: m213B10 (murine 213B10, hybridoma CNCM I-4774) (antibody, V domains shown)
VH: QVQLQQSGSELVKPGASVKMSCKASGYTFTSYYIHWVKQRPGQGLEWIGWIWPGDGSTKYNERFKGKTTLTADKSSSTAYMFLSSLTSEDSAVYFCASPMITPNYAMDYWGQGASVTVSS
VL: DIQMTQTTSSLSASLGDRVTISCRASQDISKYLNWYQQQPDGTIKLLIYYTSRLHSGVPSRFSGRGSGTDYSLTITNLEQEDIATYFCQQGSALPYTFGGGTKLEIK

decrease of IGF1-induced phosphorylation of hIGF-1R (MCF-7 cells) [1]: 80% | % internalisation (monkey IGF-1R) [2]: 71% | ΔMFI (monkey IGF-1R internalization) [2]: 76 MFI | MFI 37°C (MCF7 internalisation assay) [3]: 111 MFI
B3: m214F8 (murine 214F8, hybridoma CNCM I-4775) (antibody, V domains shown)
VH: QVQLQQSGSELVKPGASVKLSCKASGYTFTSYYIHWVKQRPGQGLEWIGWIWPGDGSTKYNERFKGKTTLTADKSSSTAYMFLSSLTSEDSAVYFCASPMITPNYAMDYWGQGASVTVSS
VL: DIQMTQTTSSLSASLGDRVTFSCRASQDISKYLNWYQQQPDGTIKLLIYYTSRLHSGVPSRFSGRGSGTDYSLTITNLEQEDIATYFCQQGSALPYTFGGGTKLEIK

binding result [16]: no binding (tested: 5 µg/ml)
B6: 816C12 (antibody, V domains shown)
VH: EVQLQQSGPELVKPGASVKMSCKASGHTFTSYVLHWMKRKPGQGLEWIGYINPHNDVTKYNENFKGKATLTSDKYSSTVYMEVSSLTSEDSAVYYCVSTAYYGNGRYFDVWGAGTTVTVSS
VL: DIQMTQTTSSLSASLGDRVTISCRASQDINNYLNWYQQKPDGTVKLLIYYTSRLHSGVSSRFSGSGSGTDYSLTISNLEQEDIATYFCQQGNTLPWTFGGGTKLEIK
notes: Murine monoclonal antibody from hybridoma CNCM I-4894; also called m816C12; I-4894

binding result [16]: no binding (tested: 5 µg/ml)
B7: 810D12 (antibody, V domains shown)
VH: EVQLQQSGPELVKPGASVKMSCKASGHTFTSYMLHWVKQKPGQGLEWLGFINPYNDVTKYNENFKGKATLTSDKSSSTAYMELNSLTSEDSAVYFCVTTAYYGNGRYFDVWGAGTTVTVSS
VL: DIQMTQTTSSLSASLGDRVTISCRASQDITNYLTWYQQKPDGTVKVLIYYTSRLYSGVPSRFSGSGSGSDYSLTINNLEQEDIATYFCQQGYSLPWTFGGGTKLEIK
notes: Murine monoclonal antibody from hybridoma CNCM I-4893; also called m810D12; I-4893

Continued, binder first:

B1: m208F2 (murine 208F2, hybridoma CNCM I-4757) (antibody, V domains shown)
VH: QVQLQQSGPELVKPGASVKMSCKASGYTFTSYYIYWVKQRPGQGLEWLGWIWPGDGSTKYNEKFKDKTTLTADKSSNTAYMFLSSLTSEDSAVYFCASPMITPNYAMDYWGQGASVTVSS
VL: DIQMTQTTSSLSASLGDRVTISCRASQDISKYLNWYQQQPDGTIKLLIYYTSRLHSGVPSRFSGRGSGTDYSLTISNVEQEDIATYFCQQGSTLPYTFGGGTKLEIK
decrease of IGF1-induced phosphorylation of hIGF-1R (MCF-7 cells) [1]: 80% | % internalisation (monkey IGF-1R) [2]: 74% | ΔMFI (monkey IGF-1R internalization) [2]: 53 MFI | MFI 37°C (MCF7 internalisation assay) [3]: 94 MFI | % internalization (MCF-7, 10 µg/ml, 4 h) [4]: 88% | ΔMFI (MCF-7, 10 µg/ml, 4 h) [4]: 294 MFI

B4: c208F2 (antibody, human IgG1, kappa, V domains shown)
VH: QVQLQQSGPELVKPGASVKMSCKASGYTFTSYYIYWVKQRPGQGLEWLGWIWPGDGSTKYNEKFKDKTTLTADKSSNTAYMFLSSLTSEDSAVYFCASPMITPNYAMDYWGQGASVTVSS
VL: DIQMTQTTSSLSASLGDRVTISCRASQDISKYLNWYQQQPDGTIKLLIYYTSRLHSGVPSRFSGRGSGTDYSLTISNVEQEDIATYFCQQGSTLPYTFGGGTKLEIKR
notes: also called chimeric 208F2; chimeric form of the 208F2 second IGF-1R antibody
phosphorylation of hIGF-1R, % of phosphorylation induced by IGF-1 (MCF-7 cells, 10 µg/ml) [1]: < 10% | Kd [5]: ~0.075 nM | ΔMFI (MCF-7, 10 µg/ml, 4 h) [6]: 288 MFI | half-life of the complex [7]: 2 to 3 h | % internalisation (monkey IGF-1R) [2]: 67% | ΔMFI (monkey IGF-1R internalization) [2]: 52 MFI | Kd [8]: ~0.2 nM | Kd [9]: 0.23 nM | Kd [10]: ~0.2 nM | % internalization (MCF-7, 10 µg/ml, 4 h) [4]: 82% | ΔMFI (MCF-7, 10 µg/ml, 4 h) [4]: 278 MFI

B5: hz208F2 H026/L024 (antibody, human IgG1, kappa, V domains shown)
VH: QVQLVQSGAEVKKPGASVKMSCKASGYTFTSYYIYWVKQAPGQGLEWLGWIWPGDGSTKYNEKFQGRVTLTADKSSNTAYMFLSSLRSEDTAVYFCASPMITPNYAMDYWGQGTLVTVSS
VL: DIQMTQSPSSLSASVGDRVTISCRASQDISKYLNWYQQKPGKAPKLLIYYTSRLHSGVPSRFSGRGSGTDYSLTISNLQPEDFATYFCQQGSTLPYTFGGGTKVEIKR
notes: also called hz208F2 VH3/VL3; hz208F2 VH3VL3
Kd [5]: ~0.06 nM | half-life of the complex [7]: 2 to 3 h | EC50 [11]: 0.71 nM | binding result [12]: no binding (tested: log [M] about -7.2 (about 6e-8 M)) | EC50 [13]: 0.709 nM | EC50 [14]: 0.511 nM | EC50 [15]: 0.51 nM | % internalization (MCF-7, 10 µg/ml, 4 h) [4]: 87% | ΔMFI (MCF-7, 10 µg/ml, 4 h) [4]: 344 MFI

Reference: patent US20190202901A1 (PIERRE FABRE MEDICAMENT, published 2019)
